According to the DeepSol protein solubility set:

Experiment: soluble on expression in E. coli; label from the status in PepcDB or PDB records

| Sequence | soluble on expression in E. coli |
| --- | --- |
| MAHHHHHHMDVKLGTIISRFTFTLPSLYDDGRDDYDATVSSPDDAATEESCGVAFTSGTHCDEARKTPKTTQAGSRSHVARFGAPASPTEKLDITGAYAFVSHGGAASSASLAAPSSPPPLLGRAAARGDRNNSTVAAPQHDVGDRGGGAVRYGTSLHLPDLVQLAAHAWNVELHCGSTGAASHCVLRLPPFVLGSTLYRGPVVYVLASGVVRMATHGSVAATELLARRVRDALHEACKPLAVRRAAREELLLMRAVLEDSLSDMLEDEGGEEGPARHLCTAVLKAEARLPSSGVSLSTALAADTAMSSQHGRRAAFGSSAAAARIGPMARDKAGHGLPTLVSTPSVLSARGCKIDFLQAVATPRWDEIVGLRASLFAPASAAPGSENSGGGGVAKADRDAEGAPRVSVRRASVNVRGDAPMEWWRWYLGVQADDHGVGGGDGSGAARRGGGAPSAAAANSEEPFPGDCSGVPLLGSWLSGDASEGGNADARSSNKTTGFWTCAGYADASPENAASFVHFLQRRRALLAHHVASFKLRRQATQNSLQILLDWRTATPPTPPAPPAPLSAAAAPLMGRPPLARALVGHPMAVAQPLPDSGTPSVPAAPTRTNISGNTWVTEASAANFFMESTFIAESAAPFELESVRMPTDRMSSADPALPVSMALGDRNVANPCGSTALAPDSGCGSMSALLEPSVGHSVLRYDSSSSKDDRTAAKAAPEKRMRGVAAAQASAANRDEAASAAMEHVTCLIHRTGRVQMTAASELALRQMCAMLLIPFLVATAEVEL | not soluble |
| MRKLLAVFSKGRWKMEQKLQEQLDGLLEKYTELLLGETNDELKEEVKQWILYTHIAKSMPPLAKHWNATYPDAKQGIKEIIQHIKELNEAHRNKQLEHHHHHH | soluble |
| MCSKQSANQQISYRQTAEATLDKGMDNQPEAPYWFPKQLLKWQLSKDKAAKYNTASVPLAKRIDKWQLPTVNKTQDPKMKVVALSIMNSSTSGNAPRGINTFDANVFSNWQYIDQLVYWGGSAGEGLIVPPTADVIDSAHKNGVPVLGTVFFPQVVSGGKLKWLNDFLKQDADGHFPMADKLVAVAKAYGFDGWFINQETDPEVKSFDSASTGKTATSSTSNGLSKKHAQLMQQLIKEYKQKAGSKLDLMWYDSMTKDGKMDWQNALTKENQSYLVDANMKPVADSMFLNFWWTKKRLASQELLKKSHERAEKLGISPYNLFAGIDVQADGTATPVRWNLFANKQHVPYTSLGLYAPDWTHASSDTVDEFQAKEGALWVNLEHHHHHH | soluble |
| MDYLTTNKIAWDARTRVHLTSDFYDVEGFLSGKISLTEIELNELAVAGKSLLHLQCHFGLDTLSWARMGAKVTGVDLSEVAIAEACKLAQQTQLSAEFICSDVYSVVGKVEPQDIVFTSYGAIVWLPDLTLWAQTIAACLKPGGQFYMAEFHPAQQLFDGYSYFNRGEPDIEQEGTYTENASDDQQTLMCWSHSLSEVINALLQAGLELVFFHEFAFSPYNCFEGLEAQADGRYVLIHQGQQVPLVYSISARKPVLEHHHHHH | soluble |
| MSLGAYLSSPKTNKESLDGGNLELDPSRYGLSCMQGWRKNMEDAHICYNNLKFNEIEEDVSIYGVFDGHGGPNVSKWISYNFRRIFIRCLKEANAGETGEDDCNGVYSSEELRLFENYYSNDYEDNIAYSCGSTALVAVILKGYLIVANAGDSRAIVCFNGNSLGMSTDHKPHLQTEEARIKKAGGYIANGRVDGNLNLTRAIGDLHYKRDPFLPQKDQKISAFPEITCVTLTPEDEFLFLACDGIWDCKDGQDVVGFVKTRLEKFEEIPDDPNNSLDNTENSEHMNTNNNSDQNEKLKSEEGHHHHHH | soluble |
| GSKGDSKETRLTLMEEVLLLGLKDREGYTSFWNDCISSGLRGCMLIELALRGRLQLEACGMRRKSLLTRKVICKSDAPTGDVLLDEALKHVKETQPPETVQNWIELLSGETWNPLKLHYQLRNVRERLAKNLVEKGVLTTEKQNFLLFDMTTHPLTNNNIKQRLIKKVQEAVLDKWVNDPHRMDRRLLALIYLAHASDVLENAFAPLLDEQYDLATKRVRQLLDLDPEVECLKANTNEVLWAVVAAFTK | soluble |
| MASSPQLEEEAAGKLETIHASAMAKSKKKTDVVDSTNLPILELLSLKAPIFQSLLHPELPIIITGFGTGHIVCHRYDPAKLQSHLDRRRRIDTATTGKDAKKGVCPWIRLDIDLETGDLKFVDIEEQQQQKQTGKDEDLGVKTLWKTKRHKGSVRAMCFDSKGDNIFSVGSDNVLKKANTMTGKVVKKVNLSSLFNSEEKKNDKFTKLCASQTHPFILIGDESGNIHVINSENLALSNSIRSIHFGDSINDIFHFDKRSAYKFISLGQTTLAYFDVRDKDAKPNVAGNEDGKILISDDQEDEVLCGCFVDPEVADTLLCGMGEGIVTVWKPNKNDLEDQMSRIKISKDESIDCIVPTLQDDNCVWCGCSNGNIYKVNAKLGKVVEIRNHSELDEVSFVDLDFEYRVVSGGLENIKIWELSSDDVEENASVESDSDEPLSHSDEDLSDDTSSDDETTLVGLSKEELLDELDKDLKEDHQEEKESNSKSVKKRKIMKENNKKKDLYEHGIKKFDDL | soluble |
| MSLTTSPDARWTRRRTEKQRRLEQVRTLADGVVLPTDKIVAALEALLVSGDRVVLEGNNQKQADFLSRALAKVDPGKVHDLHMIMPSVGRAEHLDLFEQGIARKLDFSFAGTQSLRISQLLEDGLLEIGAIHTYIELYSRLVVDLIPNVVLAAGFMADRAGNIYTGPSTEDTPALIEPAAFSDGIVIVQVNQLVDDVSELPRVDIPASWVDFVVVADKPFYIEPLFTRDPRHIKPVHVLMAMMAIRGIYEKHNVQSLNHGIGFNTAAIELILPTYGESLGLKGKICRNWTLNPHPTLIPAIESGWVESVHCFGTELGMENYIAARPDVFFTGRDGSLRSNRQLCQLAGQYAVDLFIGATLQVDGDGHSSTVTRGRLAGFGGAPNMGHDPRGRRHATPAWLDMRQQNESGPDAYLERGKKLVVQMVETFQEGGKPTFVETLDAVEVAKKSGMPLAPIMIYGDDVTHLLTEEGIAYLYKARSLEERQAMIAAVAGVTVIGLRHNPKDTARMRREGLIALPEDLGIRRTDASREGHHHHHH | not soluble |
| MGSDKIHHHHHHMKIIHVIASIDPKHGGLQAVAMRLAAAQAGLGLDVNIVSYGDAAIEAQVKEIGRSIPHFENIHWHLLPPAGRLETLFCFRGRRMLKALLKDASFMHIHGVWEPFLLYASKLARAAGVPYCICPAGMLDHWSLGQRSWKKKIALMLCYRRMLNEAAFLHLLNVDEMAAVETLNFQARNLIIPNGVFAEEFDPLPARGHFRQKIALAHGRRYILFLSRLHIKKGIDILASAFAAICETYVDVDLVVAGPPGGAEGHFMHLVKKLNIRHRVFMVGAIYGKAKLEAMVDADCFCLPSRQEGFSMAITEALACGTPVVITDQCHFPEVGSADAGLIVSVDAAEVAKALASMLGNPARARTMGENGRRLVLEKFTWPAIAHATLEGYRLSALEAAAS | not soluble |
| MIEFSDEDLQKPVRIVIEKIRPYLLKDGGNIEVLGVKSMKIYVALEGACKTCSSSKITLKNVIERQLKMDIHPNLEVVCLENAKEFDKL | not soluble |
| ELISRYPERYCRASSGRCTFAFHPAPEKSFNRGFTNLLLSGKRDTNTLITPESNKSKGAYIGCVTAVNRDKVSIRLRPDNTGAKPSLANGDGLYLLHPDGNMSGTRINVVLPDGSIQVDNPAGIVSGTNVFRNYDIRFEKALSQDNSAVRLIPVSLTLTDVPDGFSLSIEADCYPSAKATITAAHEPATRFDEEQIRKNLTKLGGTPLEAVSVDIRLSHDYFIPLSLIGRLRRDAVQSFIEKASSMPEREEKPVVQRRISPAASSLQEGEQSLSFLANVANKEAETFYRQMGYTSIAPAFEHSHPQGVPLMFSKHCLRYHLGYCPTLQHKESPYREPYYLIHGETRLRLRFDCQHCQMLVYHDSEGIKQT | not soluble |
| MSLTLVDIHCHILPGIDDGSKDWETSIKLARDAVKDGITHAVCTPHTLNGKYLNHKDDVIRLTENFQDMLDEAKIPLTVFPGQEVRISGDLPDALDNDDILFLDEEGQYMLLEFPSDDVPTYAKDMIFSIQQRGITPIVVHPERNSRILKEPHILQELIEQGCLVQITASSYVGTFGQKIEEMSRRFIEAGQCACFASDAHDLPKRQYEYSAALKKLSNEFGSGRAQEFEDNARAIVNGDNVQLNWRPLKKKKKFWLFEGHHHHHH | not soluble |
